These results are taken from the DeepSol protein solubility set.

The nature of this data set: soluble on expression in E. coli; label from the status in PepcDB or PDB records.
Take “GKSASMAVEEIASRKDISLRDMQISAILKMLFLNKDLNNNDNITTITDDIFNQQEIIWKVLILDIKSTATISSVLRVNDLLKAGITVHSLIKQDRSPLPDVPAIYFVSPTKENIDIIVNDLKSDKYSEFYINFTSSLPRNLLEDLAQQVSITGKSDKIKQVYDQYLDFIVTEPELFSLEISNAYLTLNDPKTTEEEITGLCANIADGLFNTVLTINSIPIIRAAKGGPAEIIAEKLGTKLRDFVINTNSSSTSTLQGNDSLERGVLIILDRNIDFASMFSHSWIYQCMVFDIFKLSRNTVTIPLESKENGTDNTTAKPLATKKYDIEPNDFFWMENSHLPFPEAAENVEAALNTYKEEAAEITRKTGVTNISDLDPNSNNDTVQIQEVVKKLPELTAKKNTIDTHMNIFAALLSQLESKSLDTFFEVEQDPGSTKTRSRFLDILKDGKTNNLEDKLRSFIVLYLTSTTGLPKDFVQNVENYFKENDYDINALKYVYKLREFMQLSNMSLQNKSLEDGSDSAFKPSNLTLSGIYGLTEGKLQGGVGSLISGIKKLLPEKKTIPITNVVDAIMDPLNSSQKNLETTDSYLYIDPKITRGSHTRKPKRQSYNKSLVFVVGGGNYLEYQNLQEWAHSQLHNPKKVMYGSTAITTPAEFLNEISRLGASNSSNNDA”: the “soluble on expression in E. coli” value is recorded as “soluble”.

Turning to “MMASHSDGKNMAKRKKRTKRGRPRINGCIREPNGRISRTKMPLDPIDKLAIEMRAKRFCLTLQEAKNPLSGTYIGRLYLQGNINQDQYDAAQKYLEVRNDYLCAKTLPSAIYDKMPSSSDEAARKKWVEFATKQFLNMQEVIKETQHLYRQHNFYAALQYLVSEDQELPYLVPSLADSP”, the “soluble on expression in E. coli” value is recorded as “not soluble”.

Turning to “MLSNNVNPVVGLSYRPLPETPPSGQAAAHPSMRLLEPNNDEFVRSVASPRLHHSSEALREVKHDVRQFQASGDRSLQQLRDLEVALNHWEASQPREFAKRGGMVAELRTAIDAYKQQLHEQAPSHANLDVKWLDGLRAGSMALQGDVKVWMQNLEDLHTRRPDEFAARLQQSTDALYSHLEAQWAKQHGTPPTASDVAGMPQWQEYTAMLRERFAGLDTIRPNLTAEENGVAILKTQTQLLALQRAQEALQASLADGVSHQGDVGLLRTQLLAGMVEGLIALQQADDDSALWSRPSAADSGGRLSVEAGAKASTDFEAPASKGELLRGKGISGEAVLEAFANIEMSVSGSRAGAAGEAEGSLRLYGESTARAEVSGSFEPFALSGSIGREEADGDTAASANPVLSLNVSAELSSKLGLEAQGSVTLGSLLKLDAEGRAEVGASAEVSGTAAIDKRSDGLGVRLEGQAEAFAGLKAEGTLTANLLHSKYADAHGLTASVTGSANVGLGATAEGKLVASPGQFEMGGEVGTTLGVGGNIGWNSKVDVNASTAYAYELASAAMARFDALRASQLDHDAKTSGNESQLNRLAANLQSHIDATSQKLDALNSAGVESRIRKVDGFAAGDGAQAAAGLAAQMALVGTGADLSHDIKITALNLRA”, the “soluble on expression in E. coli” value is “not soluble”. Then “MNGAQWVVHALRAQGVKTVFGYPGGAIMPVYDALYDGGVEHLLCRHEQGAAMAAIGYARSTGKTGVCIATSGPGATNLITGLADALLDSVPVVAITGQVSAPFIGTDAFQEVDVLGLSLACTKHSFLVQSLEELPRIMAEAFEVANAGRPGPVLVDIPKDIQLASGELEPWFTTVANEATFPQADVEQARQMLEQAKKPMLYVGGGVGMAQAVPALRKFIAVTQMPVTCTLKGLGAVEADYPYYLGMLGMHGTKAANFAVQECDLLIAVGARFDDRVTGKLNTFAPNASVIHMDIDPAEMNKLRQAHVALQGDLNSLLPALQQPLKIDAWRQSCAELRAEHAWRYDHPGETIYAPLLLKQLSERKPADSVVTTDVGQHQMWSAQHMTYTRPENFITSSGLGTMGFGLPAAVGAQVARPNDTVICISGDGSFMMNVQELGTVKRKQLPLKIVLLDNQRLGMVRQWQQLFFQERYSETTLTDNPDFLMLASAFGIPGQHITRKDQVEAALDTMLASEGPYLLHVSIDELENVWPLVPPGASNSEMLEKLS”, with “not soluble”; and “SLRAKNQLFLLSPHYLRQVKESSGSRLIQQRLLHQQQPLHPEWAALAKKQLKGKNPEDLIWHTPEGISIKPLYSKRDTMDLPEELPGVKPFTRGPYPTMYTFRPWTIRQYAGFSTVEESNKFYKDNIKAGQQGLSVAFDLATHRGYDSDNPRVRGDVGMAGVAIDTVEDTKILFDGIPLEKMSVSMTMNGAVIPVLANFIVTGEEQGVPKEKLTGTIQNDILKEFMVRNTYIFPPEPSMKIIADIFEYTAKHMPKFNSISISGYHMQEAGADAILELAYTLADGLEYSRTGLQAGLTIDEFAPRLSFFWGIGMNFYMEIAKMRAGRRLWAHLIEKMFQPKNSKSLLLRAHCQTSGWSLTEQDPYNNIVRTAIEAMAAVFGGTQSLHTNSFDEALGLPTVKSARIARNTQIIIQEESGIPKVADPWGGSYMMECLTNDVYDAALKLINEIEEMGGMAKAVAEGIPKLRIEECAARRQARIDSGSEVIVGVNKYQLEKEDTVEVLAIDNTSVRNRQIEKLKKIKSSRDQALAERCLAALTECAASGDGNILALAVDASRARCTVGEITDALKKVFGEHKANDRMVSGAYRQEFGESKEITSAIKRVHKFMEREGRRPRLLVAKMGQDGHDRGAKVIATGFADLGFDVDIGPLFQTPREVAQQAVDADVHAVGVSTLAAGHKTLVPELIKELNSLGRPDILVMCGGVIPPQDYEFLFEVGVSNVFGPGTRIPKAAVQVLDDIEKCLEKKQQSV”, with “not soluble”. For the sequence “MSLESRFCDICGKPAKTYQFGSLLCEDPECLKKAQKLRGGPAGHKLRVISVGSTNPVKVSAVEKAIEKTVGTMLVSSVDTKSGVSDQPQGFEETFKGAYNRAKGAFEKVNCVYGIGIEAGIVEIGEKKLDIHICVVYNGLDYSVGTSQAFQIPKDISDMINEGYECSKIAEETYRVKNIGQKNGIIGVLTDNNILREQLCIDSVVMAMIPKYRRNSQIREGHHHHHH”, the “soluble on expression in E. coli” value is recorded as “soluble”. As to “MSLISEVVVTTRKNNRDNKAPIGVYFKDKKVIMHLFSGSHTYENLLTEDYFSVNVVPPIEIAKAVLDDEDDYLYYNDIPYLKSSYYAIFYKVIERKFVDREDKFGKNRLMILEGEEIKRIYLNNIPKPYNRADGLLVEIAVIYSRLANKNIKINEDDKKEMINDIRKYFSIIKKVGGREHKQLAEIMLRNLNLLEGHHHHHH”, the “soluble on expression in E. coli” value was “soluble”.

Regarding “MNKILLQCDNLCKRYQEGTVQTDVLHDVSFSIGEGEMMAIVGSSGSGKSTLLHLLGGLDTPTSGDVIFSGQPMSKLSSAAKAELRNQKLGFIYQFHHLLPDFTALENVAMPLLIGKKKPAEIDARAREMLHAVGLEHRATHRPSELSGGERQRVAIARALVNNPRLVLADEPTGNLDARNADSIFELLGELNRLQGTAFLVVTHDLQLAKRMSRQLEMRDGRLTAELSLMGAE”, the “soluble on expression in E. coli” value is listed as “not soluble”. Regarding “MRLTNYSDYALRILTYLGLKREELSTITEIADCYGISRNHVVKIVHHLGQLGYVDTLRGKNGGIRLAHAPEKINIGEVIRHTETSMDIVECFSNQNSCIIGCSCVLRTAISEALSAFMAVLDDYTLADLIAPRRQLSRKLHVMQISDSLSD”, the “soluble on expression in E. coli” value is on record as “not soluble”. Next, “MAHHHHHHMVSAPQIRSIPCGSGDFSVMKRSLIARWQSGVHTPHGVVYRGAKMKNWPEQRIPENFKFTEEQRFRTKAIPRDVGTIPRNFVLGVLYRHQPCEVGGLWEHCTNDPEIVLDSKRHLREVLKQAREEGFVTFERDAISNEWLCFLTRERYEEVQRIVTAKSEAVDAHSGLRGAAATETSTYAEKFREMNVEAKEAHARRLEEEVANTTRYLRRFQQREIDYLPYTDLNGKVNFMWWYETRDVQQRADEVLTDSSSSKALAGEEEHKAGSQLEATTASTS”: “soluble”; “MAVKGLGEVDQKYDGSKLRIGILHARWNRKIIDALVAGAVKRLQEFGVKEENIIIETVPGSFELPYGSKLFVEKQKRLGKPLDAIIPIGVLIKGSTMHFEYICDSTTHQLMKLNFELGIPVIFGVLTCLTDEQAEARAGLIEGKMHNHGEDWGAAAVEMATKFN”: “soluble”; “MSLLEQLDKNIAASGGLIVSCQPVPGSPLDKPEIVAAMALAAEQAGAVAVRIEGIDNLRMTRSLVSVPIIGIIKRDLDESPVRITPFLDDVDALAQAGAAIIAVDGTARQRPVAVEALLARIHHHHLLAMADCSSVDDGLACQRLGADIIGTTMSGYTTPDTPEEPDLPLVKALHDAGCRVIAEGRYNSPALAAEAIRYGAWAVTVGSAITRLEHICGWYNDALKKAAS”: “not soluble”. Turning to “MGHHHHHHSHMSDWLEHSVQVEVAVPVARAWELWSDLEQMPRWMKWIDSVQVQKDDPELSRWKLASQGFEFSWLSRITRLVPQQLIQWESVDGLPNRGAIRFYDRQDHSIVRLSISYAIPGGLGPLMDKLFLGRIVEGTLKADLDRFRHYAESPR”, the “soluble on expression in E. coli” value was “not soluble”.
